B1: murine anti-fHbp monoclonal antibody 12C1 (IgG2b) (antibody, V domains shown)
VH: QVQLQESGPELVKPGASVKISCKASGYSFSDYNMSWVKQSNGKSLEWIGIIDPKYGTINYNQKFKGKATLTVDQASSTAYMQLNSLTSEDSAVYYCVRDYYGSSYFDYWGQGTTLTVSS
VL: DIVLTQSPSSIYASLGERVTLTCKASQDIHNYLNWFQQKPGKSPKTLIYRANRLVDGVPSRFSGGGSGQDYSLTISSLEFEDIGIYYCLQYDEFPPTFGGGTRLEIK
notes: also called mAb 12C1

Biological target: murine anti-fHbp monoclonal antibody JAR5 (IgG2b) (mouse)
Experiment: SPR
Details: not given

Sequence of murine anti-fHbp monoclonal antibody JAR5 (IgG2b) (mouse) (heavy, as listed by the source, chain 1 of 2, other chains not shown): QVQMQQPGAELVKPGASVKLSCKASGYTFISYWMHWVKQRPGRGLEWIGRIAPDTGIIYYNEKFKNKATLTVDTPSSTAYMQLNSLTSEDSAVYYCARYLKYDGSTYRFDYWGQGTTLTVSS

“fHbp variant 1.1 Lys122Ala mutant (natural protein)” and “fHbp variant 1.1 Asp85Ala mutant (natural protein)” are within 1.5-fold of each other in Kd: 17 nM for the first, 20 nM for the second.

Going from “fHbp variant 1.1 Gln87Ala mutant (natural protein)” to “fHbp variant 1.1 Gly121Ala mutant (natural protein)”, the Kd rises from 1.7 nM to 20 nM (12-fold).

Compared with “fHbp variant 1.1 Lys122Ser mutant (natural protein)”, “fHbp variant 1.1 Gln115Ala mutant (natural protein)” is 1.8-fold higher in Kd: 13 nM for the first, 23 nM for the second.

Biological target: T1, factor H binding protein (fHbp) variant 1.1, wild type (Neisseria meningitidis serogroup B …, UniProt Q9JXV4)
T1 construct: source: E. coli BL21(DE3), purified
Experiment: SPR; fHbp covalently immobilised by amine coupling on a CM5 chip (~500 RU); mAbs at 100 nM in HBS-EP injected one after the other (first mAb to saturation, then the second), both orders; 25 °C
Details: both partners purified

B1: binds.

Reference: article PMC6398935 (The Biochemical journal, 2016)
